Residue numbers refer to the chain shown, from its start.
Key:
MIS12C (WT) = molecular target: T1, MIS12C (WT) (Homo sapiens, UniProt Q6P1K2+Q96IY1+Q9H081+Q9H410); assay: Isothermal titration calorimetry (ITC), peptide titrated into wild-type MIS12C; format: binding; details: 20 °C, pH 7.5, wild-type MIS12C
T1 construct: TEV-cleavable double Strep II (DS) tag (C); made in house; host or cells: High-5 insect cells (baculovirus)

MIS12C^Dsn1ΔN = molecular target: T2, MIS12C^Dsn1ΔN (Homo sapiens, UniProt Q6P1K2+Q96IY1+Q9H081+Q9H410, DEL6-113); assay: ITC, peptide titrated into MIS12C with deleted Dsn1^N (residues 6–113); format: binding; details: ITC Kd ratio, MIS12C^Dsn1ΔN vs MIS12C
T2 construct: all proteins, apart from Knl1, were full length; TEV-cleavable double Strep II (DS) tag (C); made in house; host or cells: High-5 insect cells (baculovirus; Nsl1-Dsn1 virus plus Mis12-Pmf1 virus)

MIS12C = details: cited from earlier work
From the text: We used isothermal titration calorimetry (ITC) to test this structural model by measuring the affinities of MIS12C for both a peptide modeled on CENP-C and a Dsn1^N auto-inhibitory peptide, including structure-guided interface mutants (Fig. 2g and Extended Data Fig. 4). […] Deletion of Dsn1^N (residues 6–113; MIS12C ...

Dsn1 = molecular target: T3, Dsn1 (Homo sapiens, UniProt Q9H410 1-356); assay: cryo-EM structure; NDC80C, MIS12C and KNL1C mixed 1:1:1 and run on Superose 6 in 20 mM HEPES pH 8.0, 80 mM NaCl, 1 mM MgCl2, 1 mM TCEP; about 1 mg/ml on UltrAuFoil grids; 3.0 Å (MIS12C heads 3.8 Å); details: both partners purified
T3 construct: Dsn1, subunit of human MIS12C; Subunit within the KMN network cryo-EM sample; residues N-terminal to Arg92 are disordered; source: High-5 insect cells, expressed and purified as part of MIS12C
T3 sequence (looked up): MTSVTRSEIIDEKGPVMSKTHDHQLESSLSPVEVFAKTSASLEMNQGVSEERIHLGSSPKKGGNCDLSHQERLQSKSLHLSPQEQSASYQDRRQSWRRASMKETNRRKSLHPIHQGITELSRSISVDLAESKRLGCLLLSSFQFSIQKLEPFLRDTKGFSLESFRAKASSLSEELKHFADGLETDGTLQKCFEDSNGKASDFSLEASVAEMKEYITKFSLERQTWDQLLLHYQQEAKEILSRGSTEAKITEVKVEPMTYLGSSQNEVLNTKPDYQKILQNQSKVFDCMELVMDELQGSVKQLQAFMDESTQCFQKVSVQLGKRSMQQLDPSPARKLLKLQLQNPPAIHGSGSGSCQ

Nsl1 = molecular target: T4, Nsl1 (Homo sapiens, UniProt Q96IY1 1-281); assay: as above; details: both partners purified
T4 construct: Nsl1, subunit of human MIS12C; Subunit within the KMN network cryo-EM sample; source: High-5 insect cells, expressed and purified as part of MIS12C
T4 sequence (looked up): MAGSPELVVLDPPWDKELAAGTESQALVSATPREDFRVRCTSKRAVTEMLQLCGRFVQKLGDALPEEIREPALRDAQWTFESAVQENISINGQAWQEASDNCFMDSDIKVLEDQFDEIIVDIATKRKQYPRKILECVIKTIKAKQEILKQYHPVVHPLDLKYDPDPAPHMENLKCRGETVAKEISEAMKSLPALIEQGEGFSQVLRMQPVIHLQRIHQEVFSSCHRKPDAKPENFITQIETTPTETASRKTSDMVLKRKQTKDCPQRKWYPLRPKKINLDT

Spc25 = molecular target: T5, Spc25 (Homo sapiens, UniProt Q9HBM1 1-224); assay: as above; details: both partners purified
T5 construct: Spc25, subunit of human NDC80C; coordinates traced D80–N224; Subunit within the KMN network cryo-EM sample; source: High-5 insect cells, expressed and purified as part of NDC80C
T5 sequence (looked up): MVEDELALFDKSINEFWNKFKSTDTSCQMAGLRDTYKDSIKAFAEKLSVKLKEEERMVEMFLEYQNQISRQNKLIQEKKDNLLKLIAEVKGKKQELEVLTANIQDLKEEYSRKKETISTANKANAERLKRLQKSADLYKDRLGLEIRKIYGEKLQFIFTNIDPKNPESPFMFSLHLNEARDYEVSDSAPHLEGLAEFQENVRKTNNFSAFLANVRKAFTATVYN

Mis12 = molecular target: T6, Mis12 (Homo sapiens, UniProt Q9H081 1-205); assay: as above; details: both partners purified
T6 construct: Mis12, subunit of human MIS12C; Subunit within the KMN network cryo-EM sample; source: High-5 insect cells, expressed and purified as part of MIS12C
T6 sequence (looked up): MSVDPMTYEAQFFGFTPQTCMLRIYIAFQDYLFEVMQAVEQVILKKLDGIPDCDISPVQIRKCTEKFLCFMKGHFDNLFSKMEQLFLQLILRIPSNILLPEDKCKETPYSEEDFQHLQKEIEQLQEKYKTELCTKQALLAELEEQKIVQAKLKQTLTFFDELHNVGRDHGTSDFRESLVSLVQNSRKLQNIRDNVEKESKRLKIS

Knl1 residues 1870–2342 = molecular target: T7, Knl1 residues 1870–2342 (human, UniProt Q8NG31 1870-2342); assay: as above; details: both partners purified
T7 construct: Knl1, human, 2,342-residue protein, residues 1870-2342; coordinates traced R2097–H2342; Subunit within the KMN network cryo-EM sample; also called extended version of the Knl1 C terminus; source: High-5 insect cells, expressed and purified as part of KNL1C
T7 sequence (looked up): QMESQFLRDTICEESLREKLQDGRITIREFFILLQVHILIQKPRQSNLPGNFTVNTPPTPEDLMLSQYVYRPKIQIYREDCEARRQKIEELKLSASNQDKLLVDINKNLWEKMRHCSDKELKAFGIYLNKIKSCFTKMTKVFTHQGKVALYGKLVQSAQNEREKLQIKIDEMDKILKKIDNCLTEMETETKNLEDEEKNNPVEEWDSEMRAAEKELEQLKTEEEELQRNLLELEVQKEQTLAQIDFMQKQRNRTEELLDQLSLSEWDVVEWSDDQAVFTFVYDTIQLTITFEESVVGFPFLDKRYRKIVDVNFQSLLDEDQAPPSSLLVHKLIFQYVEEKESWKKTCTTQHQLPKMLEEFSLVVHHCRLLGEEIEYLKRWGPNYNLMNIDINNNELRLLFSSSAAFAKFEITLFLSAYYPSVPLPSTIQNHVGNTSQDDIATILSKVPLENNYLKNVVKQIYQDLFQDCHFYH

[1] = molecular target: T8, MIS12 complex (Mis12, Pmf1, Dsn1, Nsl1), wild type, full length (Homo sapiens, UniProt Q9H081 1-205; Q6P1K2 1-205; Q9H410 1-356; Q96IY1 1-281); assay: ITC; peptide in the syringe titrated into the MIS12C variant in the cell; 20 °C; 20 mM HEPES pH 7.5, 100 mM NaCl, 1 mM TCEP; single-site binding model; duplicate or triplicate; details: both partners purified
T8 construct: Mis12, subunit of human MIS12C; Pmf1, subunit of human MIS12C; Dsn1, subunit of human MIS12C; Nsl1, subunit of human MIS12C; The DS tag on Pmf1 is TEV cleavable; a cleavage is not described; also called MIS12C (WT); wild-type MIS12C; source: High-5 insect cells (baculovirus), purified (Strep-Tactin, Resource S, Superdex 200); copies: + + +
T8 sequence (looked up) 1: T6 sequence (looked up)
T8 sequence (looked up) 2: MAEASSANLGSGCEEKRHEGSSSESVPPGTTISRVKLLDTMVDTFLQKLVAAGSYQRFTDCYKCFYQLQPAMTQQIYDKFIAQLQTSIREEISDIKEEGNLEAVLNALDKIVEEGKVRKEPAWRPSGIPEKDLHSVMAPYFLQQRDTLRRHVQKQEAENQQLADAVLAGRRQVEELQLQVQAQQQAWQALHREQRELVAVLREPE
T8 sequence (looked up) 3: T3 sequence (looked up)
T8 sequence (looked up) 4: T4 sequence (looked up)

[2] = molecular target: T9, MIS12 complex with Dsn1 residues 6–113 deleted (Homo sapiens, UniProt Q9H081 1-205; Q6P1K2 1-205; Q9H410 1-356; Q96IY1 1-281, 6–113 residues deleted); assay: as above; details: both partners purified
T9 construct: Mis12, subunit of human MIS12C; Pmf1, subunit of human MIS12C; Nsl1, subunit of human MIS12C; also called MIS12C^Dsn1ΔN; MIS12C^ΔN-Dsn1; source: High-5 insect cells (baculovirus), purified (Strep-Tactin, Resource S, Superdex 200); copies: + + +
T9 sequence (looked up) 1: T6 sequence (looked up)
T9 sequence (looked up) 2: T8 sequence (looked up) 2
T9 sequence (looked up) 3: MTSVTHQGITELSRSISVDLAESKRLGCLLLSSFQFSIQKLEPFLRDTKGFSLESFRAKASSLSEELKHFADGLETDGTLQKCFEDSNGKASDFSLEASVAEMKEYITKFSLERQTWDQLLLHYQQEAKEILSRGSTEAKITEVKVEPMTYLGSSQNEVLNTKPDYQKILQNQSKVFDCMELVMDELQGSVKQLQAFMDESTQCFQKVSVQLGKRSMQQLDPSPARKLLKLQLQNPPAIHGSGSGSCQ
T9 sequence (looked up) 4: T4 sequence (looked up)

[3] = molecular target: T10, MIS12 complex with phosphomimetic Dsn1 S100D S109D (Homo sapiens, UniProt Q9H081 1-205; Q6P1K2 1-205; Q9H410 1-356; Q96IY1 1-281, S100D | S109D); assay: as above; details: both partners purified
T10 construct: Mis12, subunit of human MIS12C; Pmf1, subunit of human MIS12C; Dsn1, subunit of human MIS12C, S100D S109D; Nsl1, subunit of human MIS12C; also called MIS12C^(Dsn1-S100D S109D); MIS12C^(Dsn1 S100D/S109D); source: High-5 insect cells (baculovirus), purified (Strep-Tactin, Resource S, Superdex 200); copies: + + +
T10 sequence (looked up) 1: T6 sequence (looked up)
T10 sequence (looked up) 2: T8 sequence (looked up) 2
T10 sequence (looked up) 3: T3 sequence (looked up) with S100D, S109D
T10 sequence (looked up) 4: T4 sequence (looked up)

Ac-RRQSWRRASMKETNRRKSLHPIAW-NH2 [Dsn1^92–113]
affinity of Dsn1^92–113 for MIS12C, in words (MIS12C (WT)): high-micromolar affinity
enhancement of Dsn1^92–113 binding on deleting Dsn1^N, relative to MIS12C (WT) (MIS12C^Dsn1ΔN): 44 fold

residues 1–21 of CENP-C: residues 1–21 of CENP-C, prior data of ref 10
increase in affinity of MIS12C for residues 1–21 of CENP-C on deleting a ten-residue segment of Dsn1 incorporating Ser100 and Ser109 (MIS12C): 90 fold

B1: Spc24 (natural protein, Homo sapiens, UniProt Q8NBT2 1-197, looked up)
chain: MAAFRDIEEVSQGLLSLLGANRAEAQQRRLLGRHEQVVERLLETQDGAEKQLREILTMEKEVAQSLLNAKEQVHQGGVELQQLEAGLQEAGEEDTRLKASLLQLTRELEELKEIEADLERQEKEVDEDTTVTIPSAVYVAQLYHQVSKIEWDYECEPGMVKGIHHGPSVAQPIHLDSTQLSRKFISDYLWSLVDTEW
notes: Spc24, subunit of human NDC80C; coordinates traced G86–W197; Subunit within the KMN network cryo-EM sample; source: High-5 insect cells, expressed and purified as part of NDC80C
binding result (Dsn1): binds
binding result (Nsl1): binds
binding result (Spc25): binds

B2: Pmf1 (natural protein, Homo sapiens, UniProt Q6P1K2 1-205, looked up)
chain: T8 sequence (looked up) 2
notes: Pmf1, subunit of human MIS12C; Subunit within the KMN network cryo-EM sample; source: High-5 insect cells, expressed and purified as part of MIS12C
binding result (Mis12): binds
binding result (Dsn1): binds
binding result (Knl1 residues 1870–2342): binds

B3: CENP-C^2–22 peptide (peptide)
peptide: Ac-AASGLDHLKNGYRRRFCRPSRA-NH2
notes: CENP-C, human, named residues 2-22; also called N-terminal region of CENP-C (residues 2–22); source: synthetic peptide (Biosynth)
Kd [1]: 485 nM
Kd [2]: 10.2 nM
Kd [3]: 20.4 nM

Reference: publication PMC11189301, “Structure of the human outer kinetochore KMN network complex” (Nature Structural & Molecular Biology, 2024)
